Results as given in patent publication US20150072922A1, “RNASE 7 ANTIMICROBIAL PEPTIDES” (THE RESEARCH INSTITUTE AT NATIONWIDE CHILDREN'S HOSPITAL, priority 2012, published 2015).
Entries after “also recorded” stand apart in the source; their conditions may differ.

B1: F:1-97: recombinant N-terminal RNase 7 fragment, amino acids 1 to 97 (SEQ ID NO: 5), N-terminal His tag (protein, listed as Homo sapiens)
chain: KPKGMTSSQWFKIQHMQPSPQACNSAMKNINKHTKRCKDLNTFLHEPFSSVAATCQTPKIACKNGDKNCHQSHGPVSLTMCKLTSGKYPNCRYKEKR
modifications: N-terminal His tag
B2: RNase7: recombinant full-length human Ribonuclease 7, amino acids 1-128 (SEQ ID NO: 1), N-terminal His tag (protein, listed as Homo sapiens)
chain: KPKGMTSSQWFKIQHMQPSPQACNSAMKNINKHTKRCKDLNTFLHEPFSSVAATCQTPKIACKNGDKNCHQSHGPVSLTMCKLTSGKYPNCRYKEKRQNKSYVVACKPPQKKDSQQFHLVPVHLDRVL
modifications: N-terminal His tag

How the values were obtained:
[1] = test system: Escherichia coli (UTI89); test: Antimicrobial kill (microdilution) assay, MIC/MBC by CFU count; type: cell-based; settings: for antimicrobial activity against E. coli (in words): MIC/MBC based, mostly compared to full-length RNase 7; for E. coli MIC: lowest concentration that inhibits the growth of 90% of the inoculation; for E. coli MIC / E. coli MBC: 3 hours, 0.1×PBS; for E. coli MBC: minimum bactericidal concentration
Description: (§1) The antimicrobial activity of RNase 7 and its fragments was estimated using a microdilution assay. Briefly, test bacteria (10^5) were incubated with several concentrations of RNase 7 and each fragment in 50 μl 0.1×PBS buffer for 3 hours in a 37° C. incubator. Each reaction was plated on the appropriate medium and grew overnight at 37° C. The antimicrobial activity was determined by the number of colony-forming units (CFUs) the following day. The minimum inhibition concentration (MIC) is defined as the lowest concentration that inhibits the growth of 90% of the inoculation and the minimum bactericidal concentration (MB C) is defined as the lowest concentration at which less than 99.99% of the initial inoculum is viable.
(§2) Antimicrobial activities of the recombinant peptides were estimated with a microdilution assay. Briefly, the test bacteria (10^4 CFUs) were incubated with various concentrations of RNase 7 and each fragment in 50 ul 0.1×PBS buffer for 3 hours at 37° C. After incubation on Agar plates overnight at 37° C., the number of colony-forming units (CFUs) at each peptide concentration was determined. Using untreated bacterial aliquots as baseline, the minimum inhibition concentration (MIC) was defined as the lowest concentration that inhibits the growth of 90% of the inoculation, and the minimum bactericidal concentration (MBC) was defined as the lowest concentration at which less than 99.99% of the initial inoculum is viable.

[2] = test system: Staphylococcus saprophyticus (ATCC 15305); test: as above; type: cell-based; settings: for antimicrobial activity against S. saprophyticus (in words): MIC/MBC based, mostly compared to full-length RNase 7; for S. saprophyticus MIC: lowest concentration that inhibits the growth of 90% of the inoculation; for S. saprophyticus MIC / S. saprophyticus MBC: 3 hours, 0.1×PBS; for S. saprophyticus MBC: minimum bactericidal concentration
Description: as §1, §2

[3] = test system: Proteus mirabilis (ATCC 7002); test: as above; type: cell-based; settings: for P. mirabilis MIC: lowest concentration that inhibits the growth of 90% of the inoculation; for P. mirabilis MIC / P. mirabilis MBC: 3 hours, 0.1×PBS; for P. mirabilis MBC: minimum bactericidal concentration
Description: Uropathogenic Escherichia coli (UTI89) was grown in Luria broth (LB) medium and plated on LB-agar. Uropathogenic Staphylococcus saprophyticus (ATCC 15305) was grown in LB and plated on Trypticase Soy Agar with 5% sheep blood (Fisher Scientific, Pittsburgh, Pa., USA). Uropathogenic Proteus mirabilis (ATCC 7002) was grown in LB and plated on MacConkey II Agar (Fisher Scientific, Pittsburgh, Pa., USA). These organisms were chosen as the primary organisms that account for a majority of Gram-negative and Gram-positive urinary tract infections (UTI). Anti-RNase 7 antibody was generated in rabbit with recombinant human RNase 7 (Biomatik, Wilmington, Del., USA)
as §2

[4] = test system: E. coli (UTI-89); test: Live/Dead BacLight bacterial viability assay (confocal imaging); type: cell-based, Escherichia coli; settings: 1 μM
Description: (§3) Bacterial viability assays were performed using a Live/Dead BacLight™ bacterial viability kit (Invitrogen). Uropathogenic E. coli (UTI-89) and S. Saprophyticus (ATCC 15305) were grown at 37° C. to the mid-log phase, centrifuged at 5000 rpm for 5 min, and resuspended in water with an OD=0.2. Bacteria were stained using a 1:1 mixture of a green-fluorescent STY®9 dye and a red-fluorescent propidium iodide dye as provided in the Live/Dead BacLight™ bacterial viability kit. SYTO®9 labels both live and dead bacteria. Propidium iodide penetrates only bacteria with damaged membranes. Consequently, live bacteria with intact membranes fluoresce green, while dead bacteria with damaged membranes fluoresce red. […]. 50 uL of stained uropathogenic bacteria was mixed with recombinant RNase 7 or RNase 7 fragments to achieve a final concentration of 3 uM and 1 uM. 10 uL of this mixture was added to poly-1-lysine coated microscope slides (Polysciences, Inc, Warrington, Pa., USA) and confocal images of the bacteria were obtained using a Zeiss LSM 700 confocal laser scanning microscope (Carl Zeiss LLC, Thornwood, N.Y., USA). SYTO®9 was excited using an argon laser (448-500 nm emission collected) and propidium iodide was excited using an orange diode (555-600 nm emission collected). Samples were imaged in triplicate.
(§4) For images of intact versus disrupted membranes of dying/dead cells, the Live/Dead BacLight™ bacterial viability kit (Invitrogen) was used. E. coli and S. saprophyticus were grown at 37° C. to the mid-log phase, centrifuged at 5000 rpm for 5 min, and resuspended in water to an OD600 of 0.2. Bacteria were incubated in a 1:1 mixture of Live/Dead BacLight™ bacterial viability assay. A bacterial aliquot of 50 μL was mixed with recombinant RNase 7 or recombinant fragments to achieve a final concentration of 1 μM. Ten microliters of this mixture was added to poly-1-lysine coated microscope slides (Polysciences, Inc, Warrington, Pa., USA), and images were obtained in triplicate using a Zeiss LSM 710 confocal laser scanning microscope (Carl Zeiss LLC, Thornwood, N.Y., USA).

[5] = test system: S. Saprophyticus (ATCC 15305); test: as above; type: cell-based, Staphylococcus saprophyticus; settings: 1 μM
Description: as §3, §4

[6] = test system: E. coli; test: Urinary condition functional assay (OD600 growth curves); type: cell-based, Escherichia coli; settings: for activity on E. coli growth at various pH levels / activity on E. coli growth at various CaCl2 titers: 2 μM peptide; for activity on E. coli growth at various pH levels: 1% peptone water, pH 5, 7, 9, OD600 for 10 hours, FIG. 3; for activity on E. coli growth at various NaCl titers: 2 μM peptide, 50, 150, 500 mM NaCl, FIG. 4; for activity on E. coli growth at various NaCl titers / activity on E. coli growth at various CaCl2 titers: OD600 for 10 hours; for activity on E. coli growth at various CaCl2 titers: CaCl2 up to 16.25 mM, FIG. 5
Description: (§5) Because the urinary environment can have significant variation in salt concentration, ionic composition, and pH, an antimicrobial/bacteriostatic assay was performed to evaluate if pH, calcium, or ionic strength affects the activity of full-length RNase7 or its fragments. The highest activity fragment F:1-97 and lowest activity fragment F:72-128 for these experiments were chosen. Bacteria were inoculated in 1% peptone water and growth to log phase with OD600=0.5. Bacteria were diluted to 1:10 and 1 μl added to 100 μl of 1% peptone water with various pH, CaCl2 or NaCl concentrations that correspond to a physiologic range present in the urine in a 96-well flat bottom plate (Thermo Scientific, Nunc, Worcester, Mass.). To each well, 2 μM of RNase7 or its fragments were added.
(§6) Bacterial growth was monitored using an Absorbance microplate reader (BioTek Instruments, Winooski, Vt.) at a final volume of 110 μl. The turbidity of the culture was measured and recorded at t=0 and every 20 min thereafter for 10 hours using the absorbance at 600 nm (OD600). The values of OD600 values were plotted against times to generate growth curves.

[7] = test system: S. saprophyticus; test: as above; type: cell-based, Staphylococcus saprophyticus; settings: for activity on S. saprophyticus growth at various NaCl titers: 2 μM peptide, 50, 150, 500 mM NaCl, FIG. 7; for activity on S. saprophyticus growth at various NaCl titers / activity on S. saprophyticus growth at various CaCl2 titers: OD600 for 10 hours; for activity on S. saprophyticus growth at various CaCl2 titers / activity on S. saprophyticus growth at various pH levels: 2 μM peptide; for activity on S. saprophyticus growth at various CaCl2 titers: CaCl2 up to 16.25 mM, FIG. 8; for activity on S. saprophyticus growth at various pH levels: pH 5, 7, 9, OD600 for 10 hours, FIG. 6
Description: as §5, §6

[8] = test system: Proteus mirabilis; test: as above; type: cell-based; settings: for activity on Proteus mirabilis growth at various CaCl2 titers: 2 μM peptide, 1.25, 7.5, 16.25 mM CaCl2, OD600 for 10 hours, FIG. 11; for activity on Proteus mirabilis growth at various NaCl titers: 2 μM peptide, 50, 150, 500 mM NaCl, OD600 for 10 hours, FIG. 10; for activity on Proteus mirabilis growth at various pH levels: 2 μM peptide, pH 5, 7, 9, OD600 for 10 hours, FIG. 9
Description: as §5, §6

[9] = compared to full-length RNase 7

| Molecule | E. coli MIC [1] | E. coli MBC [1] | S. saprophyticus MIC [2] | S. saprophyticus MBC [2] | P. mirabilis MIC [3] | P. mirabilis MBC [3] | killing of E. coli in Bacterial Viability Assay ([4]; 30 min) | killing of E. coli in Bacterial Viability Assay ([4]; 3 hours) | killing of S. saprophyticus in Bacterial Viability Assay ([5]; 30 min) | killing of S. saprophyticus in Bacterial Viability Assay ([5]; 3 hours) | activity on E. coli growth at various pH levels [6] | activity on E. coli growth at various NaCl titers [6] | activity on E. coli growth at various CaCl2 titers [6] | activity on S. saprophyticus growth at various NaCl titers [7] | activity on S. saprophyticus growth at various CaCl2 titers [7] | activity on S. saprophyticus growth at various pH levels [7] | activity on Proteus mirabilis growth at various CaCl2 titers [8] | activity on Proteus mirabilis growth at various NaCl titers [8] | activity on Proteus mirabilis growth at various pH levels [8] | further results |
| --- | --- | --- | --- | --- | --- | --- | --- | --- | --- | --- | --- | --- | --- | --- | --- | --- | --- | --- | --- | --- |
| B1 | 0.07 µM | 0.14 µM | 0.04 µM | 0.08 µM | .44 µM | .88 µM | killed most of the E. coli and S. saprophyticus | completely dead | killed most of the E. coli and S. saprophyticus | completely dead | activity pattern comparable to full-length peptide at various pHs | activity pattern comparable to full-length peptide at various NaCl concentrations | activity pattern comparable to full-length peptide at various CaCl2 concentrations; also recorded: sensitive to CaCl2 concentrations | diminished in direct proportion to NaCl concentration; also recorded: activity pattern comparable to full-length peptide at various NaCl concentrations | sensitive to CaCl2 concentrations; also recorded: activity is inversely related to CaCl2 concentration but more pronounced compared to full length RNase 7 | optimal activity at pH 5 | unchanged activity under all conditions against P. mirabilis; also recorded: activity is not significantly altered by CaCl2 concentrations | activity pattern comparable to full-length peptide at various NaCl concentrations | optimal activity at pH 5 (gray squares), but less compared to full length | antimicrobial activity against E. coli (in words) [1]: decreased relative to the full-length peptide; antimicrobial activity against E. coli (in words) ([1]; listed as 1-97): strongest activity; also recorded: increased activity against both strains; MICs and MBCs fold lower than full length protein, E. coli [1, 9]: at least 4 fold; antimicrobial activity against S. saprophyticus (in words) [2]: decreased relative to the full-length peptide; antimicrobial activity against S. saprophyticus (in words) ([2]; listed as 1-97): increased activity against both strains; MICs and MBCs fold lower than full length protein, S. saprophyticus [2, 9]: at least 4 fold |
| B2 | 0.26 µM | 0.53 µM | 0.22 µM | .44 µM | .88 µM | .88 µM | did not | completely dead | did not | completely dead | pH 9 (dotted line) decreases full-length RNase 7 activity; also recorded: activity was optimal at pH 7 against E. coli | activity was not different at 50 and 150 mM NaCl | activity is inversely related to CaCl2 concentration; also recorded: significantly reduced full-length RNase 7 activity against all uropathogens | diminished in direct proportion to NaCl concentration; also recorded: activity inversely related to NaCl concentration | significantly reduced full-length RNase 7 activity against all uropathogens; also recorded: activity is inversely related to CaCl2 concentration | activity is potent at all pH; also recorded: maintained high activity at pH 5 | significantly reduced full-length RNase 7 activity against all uropathogens; also recorded: activity is significantly diminished at higher CaCl2 concentrations but relatively unaffected at 1.25 mM concentration | diminished significantly with additional of any NaCl titer; also recorded: activity markedly diminished at all salt concentrations | maintained high activity at pH 5; also recorded: activity is potent at pH 5 | MIC against E. coli [1]: 0.26 µM; MIC for E. coli ([1]; E. coli UTI89): 0.26 LM; MIC for S. saprophyticus [2]: 0.22 µM; MIC for P. mirabilis [3]: 0.88 µM; antimicrobial activity against P. mirabilis (in words) ([3]; MIC/MBC based, mostly compared to full-length RNase 7): MIC and MBC values that were identical |
